The source of these data is paper PMC10250209, “UV-DDB stimulates the activity of SMUG1 during base excision repair of 5-hydroxymethyl-2'-deoxyuridine moieties”.

The data set deals with UV-DDB (DDB1-DDB2 heterodimer);SMUG1 WT (UniProt Q16531+Q92466+Q53HV7). Put plainly: single-molecule DNA tightrope. The conditions noted are these: both Qdot-labeled; 91.1% of co-localized particles stationary and persistent; tetrahydrofuran abasic site every 2 kb; EMSA: 8 nM DNA, 20 mM HEPES pH 7.5, 150 mM NaCl, 2 mM DTT (5 mM for SMUG1), 5% glycerol, 0.5 mg/ml BSA (0.5 mg/l [sic] for SMUG1), +/- 1.5 mM MgCl2, RT 20 min. On the technique in general: Mobility shift assays separate free from complexed probe on a gel.
UV-DDB (DDB1-DDB2 heterodimer);SMUG1 WT, sequence (Q16531 whole entry, chain 1 of 3): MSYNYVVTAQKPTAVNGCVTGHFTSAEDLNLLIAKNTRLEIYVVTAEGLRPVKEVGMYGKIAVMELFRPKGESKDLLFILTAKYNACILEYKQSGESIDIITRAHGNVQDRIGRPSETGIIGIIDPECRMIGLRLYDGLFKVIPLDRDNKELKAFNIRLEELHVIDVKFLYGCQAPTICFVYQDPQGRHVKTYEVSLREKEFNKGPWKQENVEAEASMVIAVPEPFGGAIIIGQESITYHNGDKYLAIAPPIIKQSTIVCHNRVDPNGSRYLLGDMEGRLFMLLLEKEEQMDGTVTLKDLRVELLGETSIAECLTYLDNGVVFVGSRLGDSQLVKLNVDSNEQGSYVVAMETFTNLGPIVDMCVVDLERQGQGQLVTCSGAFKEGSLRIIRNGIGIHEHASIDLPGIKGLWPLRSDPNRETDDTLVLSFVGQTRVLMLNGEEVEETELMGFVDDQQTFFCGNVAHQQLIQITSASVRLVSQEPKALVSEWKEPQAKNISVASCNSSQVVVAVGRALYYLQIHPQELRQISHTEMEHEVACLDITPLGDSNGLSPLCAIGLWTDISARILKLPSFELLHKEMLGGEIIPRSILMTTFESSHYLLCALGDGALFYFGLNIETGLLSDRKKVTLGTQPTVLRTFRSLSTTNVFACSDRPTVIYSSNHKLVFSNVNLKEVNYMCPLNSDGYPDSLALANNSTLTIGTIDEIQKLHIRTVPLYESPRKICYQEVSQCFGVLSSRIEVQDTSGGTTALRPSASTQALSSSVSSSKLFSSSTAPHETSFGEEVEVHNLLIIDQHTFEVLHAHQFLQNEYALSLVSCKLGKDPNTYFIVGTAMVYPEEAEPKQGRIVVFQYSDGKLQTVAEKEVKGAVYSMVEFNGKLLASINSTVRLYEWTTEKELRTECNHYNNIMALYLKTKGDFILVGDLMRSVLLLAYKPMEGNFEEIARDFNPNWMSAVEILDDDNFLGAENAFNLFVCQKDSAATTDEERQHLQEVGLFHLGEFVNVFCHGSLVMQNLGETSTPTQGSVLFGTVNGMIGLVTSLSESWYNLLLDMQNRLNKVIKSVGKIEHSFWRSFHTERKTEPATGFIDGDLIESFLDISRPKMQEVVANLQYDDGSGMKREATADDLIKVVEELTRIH
UV-DDB (DDB1-DDB2 heterodimer);SMUG1 WT, sequence (Q92466 whole entry, chain 2 of 3): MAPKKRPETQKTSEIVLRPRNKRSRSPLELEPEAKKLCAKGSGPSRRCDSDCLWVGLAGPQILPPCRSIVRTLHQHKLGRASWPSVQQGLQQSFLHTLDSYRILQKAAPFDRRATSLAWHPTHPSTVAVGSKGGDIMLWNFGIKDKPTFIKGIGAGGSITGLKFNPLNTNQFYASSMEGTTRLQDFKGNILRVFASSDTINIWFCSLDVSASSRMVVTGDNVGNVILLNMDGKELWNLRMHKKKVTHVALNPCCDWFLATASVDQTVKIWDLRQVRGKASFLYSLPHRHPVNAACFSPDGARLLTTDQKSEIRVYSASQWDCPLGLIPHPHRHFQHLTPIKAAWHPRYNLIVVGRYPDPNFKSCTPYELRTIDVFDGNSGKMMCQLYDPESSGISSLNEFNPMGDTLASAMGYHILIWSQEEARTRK
UV-DDB (DDB1-DDB2 heterodimer);SMUG1 WT, sequence (Q53HV7 whole entry, chain 3 of 3): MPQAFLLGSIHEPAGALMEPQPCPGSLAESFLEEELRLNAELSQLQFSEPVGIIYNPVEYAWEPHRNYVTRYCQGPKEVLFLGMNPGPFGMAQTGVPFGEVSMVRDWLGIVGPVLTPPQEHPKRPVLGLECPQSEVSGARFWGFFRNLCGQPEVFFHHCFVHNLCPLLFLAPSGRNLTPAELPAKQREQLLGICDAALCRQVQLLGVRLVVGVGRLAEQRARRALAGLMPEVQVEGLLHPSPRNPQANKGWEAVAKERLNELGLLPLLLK

Substance “DNA tightrope with one THF site every 2 kb” displayed a binding (% of particles co-localized) of 15.6.
